Results: publication PMC4961411
“And” between values parts separate entries of the source, which are not always exact repeats. Identical values can stand only once.

How the values were obtained:
[1] = biological target: 6xHis-YlfA 128–425 (Legionella pneumophila); experiment: SDS-PAGE and immunoblot of gel filtration peak fractions, boiled
[2] = biological target: 6xHis-YlfA 128–425 (Legionella pneumophila); experiment: SDS-PAGE and immunoblot of gel filtration peak fractions, not boiled
[3] = biological target: 6xHis-YlfB 131–405 (Legionella pneumophila); experiment: SDS-PAGE and immunoblot of gel filtration peak fractions, boiled
[4] = biological target: 6xHis-YlfB 131–405 (Legionella pneumophila); experiment: SDS-PAGE and immunoblot of gel filtration peak fractions, not boiled

Substance	stoichiometry N [1]	stoichiometry N [2]	stoichiometry N [3]	stoichiometry N [4]
6xHis-YlfA 128–425 (domain or fragment)	2	2 and 3		
6xHis-YlfB 131–405 (domain or fragment)			2	2 and 3
